# According to paper PMC8022922:
# Biological target: AfMAT1-1-1_(78–235) (Aspergillus fumigatus)
# Experiment: SEC
substance,measurement,value
AfMAT1-1-1_(78–235) (domain or fragment),stoichiometry N,2
